Eight variants from IntAct's records for PubMed 24510189 can be followed below.

The labels stand for the following.
B1: mRNA-decapping enzyme 1A (Homo sapiens), Q9NPI6 (parent)
chain: MEALSRAGQEMSLAALKQHDPYITSIADLTGQVALYTFCPKANQWEKTDIEGTLFVYRRSASPYHGFTIVNRLNMHNLVEPVNKDLEFQLHEPFLLYRNASLSIYSIWFYDKNDCHRIAKLMADVVEEETRRSQQAARDKQSPSQANGCSDHRPIDILEMLSRAKDEYERNQMGDSNISSPGLQPSTQLSNLGSTETLEEMPSGSQDKSAPSGHKHLTVEELFGTSLPKEQPAVVGLDSEEMERLPGDASQKEPNSFLPFPFEQLGGAPQSETLGVPSAAHHSVQPEITTPVLITPASITQSNEKHAPTYTIPLSPVLSPTLPAEAPTAQVPPSLPRNSTMMQAVKTTPRQRSPLLNQPVPELSHASLIANQSPFRAPLNVTNTAGTSLPSVDLLQKLRLTPQHDQIQTQPLGKGAMVASFSPAAGQLATPESFIEPPSKTAAARVAASASLSNMVLAPLQSMQQNQDPEVFVQPKVLSSAIPVAGAPLVTATTTAVSSVLLAPSVFQQTVTRSSDLERKASSPSPLTIGTPESQRKPSIILSKSQLQDTLIHLIKNDSSFLSTLHEVYLQVLTKNKDNHNL

Variants of B1 are the subject of one assay. The following applies: with pnrc2_human PNRC2, Q9NPJ4.
Sequence of pnrc2_human PNRC2, Q9NPJ4 (Q9NPJ4 whole entry): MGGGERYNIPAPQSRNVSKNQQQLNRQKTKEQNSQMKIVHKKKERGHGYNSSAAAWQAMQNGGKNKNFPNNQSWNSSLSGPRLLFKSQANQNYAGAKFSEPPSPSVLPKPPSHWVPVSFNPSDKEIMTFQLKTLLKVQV
In the case of MEALSRAGQEMSLAALKQHDPYITSIADLTGQVALYTFCPKANQWEKTDIEGTLFVYRRSASPYHGFTIVNGLGMHNLVEPVNKDLEFQLHEPFLLYRNASLSIYSIWFYDKNDCHRIAKLMADVVEEETRRSQQAARDKQSPSQANGCSDHRPIDILEMLSRAKDEYERNQMGDSNISSPGLQPSTQLSNLGSTETLEEMPSGSQDKSAPSGHKHLTVEELFGTSLPKEQPAVVGLDSEEMERLPGDASQKEPNSFLPFPFEQLGGAPQSETLGVPSAAHHSVQPEITTPVLITPASITQSNEKHAPTYTIPLSPVLSPTLPAEAPTAQVPPSLPRNSTMMQAVKTTPRQRSPLLNQPVPELSHASLIANQSPFRAPLNVTNTAGTSLPSVDLLQKLRLTPQHDQIQTQPLGKGAMVASFSPAAGQLATPESFIEPPSKTAAARVAASASLSNMVLAPLQSMQQNQDPEVFVQPKVLSSAIPVAGAPLVTATTTAVSSVLLAPSVFQQTVTRSSDLERKASSPSPLTIGTPESQRKPSIILSKSQLQDTLIHLIKNDSSFLSTLHEVYLQVLTKNKDNHNL [R72G;N74G], the “effect of a mutation on the interaction” value is “with no effect”.

As for MEALSRAGQEMALAALKAADPYITSIADLTGQVALYTFCPKANQWEKTDIEGTLFVYRRSASPYHGFTIVNRLNMHNLVEPVNKDLEFQLHEPFLLYRNASLSIYSIWFYDKNDCHRIAKLMADVVEEETRRSQQAARDKQSPSQANGCSDHRPIDILEMLSRAKDEYERNQMGDSNISSPGLQPSTQLSNLGSTETLEEMPSGSQDKSAPSGHKHLTVEELFGTSLPKEQPAVVGLDSEEMERLPGDASQKEPNSFLPFPFEQLGGAPQSETLGVPSAAHHSVQPEITTPVLITPASITQSNEKHAPTYTIPLSPVLSPTLPAEAPTAQVPPSLPRNSTMMQAVKTTPRQRSPLLNQPVPELSHASLIANQSPFRAPLNVTNTAGTSLPSVDLLQKLRLTPQHDQIQTQPLGKGAMVASFSPAAGQLATPESFIEPPSKTAAARVAASASLSNMVLAPLQSMQQNQDPEVFVQPKVLSSAIPVAGAPLVTATTTAVSSVLLAPSVFQQTVTRSSDLERKASSPSPLTIGTPESQRKPSIILSKSQLQDTLIHLIKNDSSFLSTLHEVYLQVLTKNKDNHNL [S12A;Q18A;H19A], the “effect of a mutation on the interaction” value was “with no effect”.

In the next assay the parent is B1. To be noted: with dcp2_human DCP2, Q8IU60.
As for MEALSRAGQEMSLAALKQADPYITSIADLTGQVALYTFCPKANQWEKTDIEGTLFVYRRSASPYHGFTIVNRLNMHNLVEPVNKDLEFQLHEPFLLYRNASLSIYSIWFYDKNDCHRIAKLMADVVEEETRRSQQAARDKQSPSQANGCSDHRPIDILEMLSRAKDEYERNQMGDSNISSPGLQPSTQLSNLGSTETLEEMPSGSQDKSAPSGHKHLTVEELFGTSLPKEQPAVVGLDSEEMERLPGDASQKEPNSFLPFPFEQLGGAPQSETLGVPSAAHHSVQPEITTPVLITPASITQSNEKHAPTYTIPLSPVLSPTLPAEAPTAQVPPSLPRNSTMMQAVKTTPRQRSPLLNQPVPELSHASLIANQSPFRAPLNVTNTAGTSLPSVDLLQKLRLTPQHDQIQTQPLGKGAMVASFSPAAGQLATPESFIEPPSKTAAARVAASASLSNMVLAPLQSMQQNQDPEVFVQPKVLSSAIPVAGAPLVTATTTAVSSVLLAPSVFQQTVTRSSDLERKASSPSPLTIGTPESQRKPSIILSKSQLQDTLIHLIKNDSSFLSTLHEVYLQVLTKNKDNHNL [H19A], the “effect of a mutation on the interaction” value is on record as “with no effect”.

For MEALSRAGQEMALAALKAADPYITSIADLTGQVALYTFCPKANQWEKTDIEGTLFVYRRSASPYHGFTIVNRLNMHNLVEPVNKDLEFQLHEPFLLYRNASLSIYSIWFYDKNDCHRIAKLMADVVEEETRRSQQAARDKQSPSQANGCSDHRPIDILEMLSRAKDEYERNQMGDSNISSPGLQPSTQLSNLGSTETLEEMPSGSQDKSAPSGHKHLTVEELFGTSLPKEQPAVVGLDSEEMERLPGDASQKEPNSFLPFPFEQLGGAPQSETLGVPSAAHHSVQPEITTPVLITPASITQSNEKHAPTYTIPLSPVLSPTLPAEAPTAQVPPSLPRNSTMMQAVKTTPRQRSPLLNQPVPELSHASLIANQSPFRAPLNVTNTAGTSLPSVDLLQKLRLTPQHDQIQTQPLGKGAMVASFSPAAGQLATPESFIEPPSKTAAARVAASASLSNMVLAPLQSMQQNQDPEVFVQPKVLSSAIPVAGAPLVTATTTAVSSVLLAPSVFQQTVTRSSDLERKASSPSPLTIGTPESQRKPSIILSKSQLQDTLIHLIKNDSSFLSTLHEVYLQVLTKNKDNHNL [S12A;Q18A;H19A], the “effect of a mutation on the interaction” value is “disrupting interaction strength”.

MEALSRAGQEMSLAALKAADPYITSIADLTGQVALYTFCPKANQWEKTDIEGTLFVYRRSASPYHGFTIVNRLNMHNLVEPVNKDLEFQLHEPFLLYRNASLSIYSIWFYDKNDCHRIAKLMADVVEEETRRSQQAARDKQSPSQANGCSDHRPIDILEMLSRAKDEYERNQMGDSNISSPGLQPSTQLSNLGSTETLEEMPSGSQDKSAPSGHKHLTVEELFGTSLPKEQPAVVGLDSEEMERLPGDASQKEPNSFLPFPFEQLGGAPQSETLGVPSAAHHSVQPEITTPVLITPASITQSNEKHAPTYTIPLSPVLSPTLPAEAPTAQVPPSLPRNSTMMQAVKTTPRQRSPLLNQPVPELSHASLIANQSPFRAPLNVTNTAGTSLPSVDLLQKLRLTPQHDQIQTQPLGKGAMVASFSPAAGQLATPESFIEPPSKTAAARVAASASLSNMVLAPLQSMQQNQDPEVFVQPKVLSSAIPVAGAPLVTATTTAVSSVLLAPSVFQQTVTRSSDLERKASSPSPLTIGTPESQRKPSIILSKSQLQDTLIHLIKNDSSFLSTLHEVYLQVLTKNKDNHNL [Q18A;H19A]: the “effect of a mutation on the interaction” value is “decreasing interaction strength”.

With MEALSRAGQEMALAALKQADPYITSIADLTGQVALYTFCPKANQWEKTDIEGTLFVYRRSASPYHGFTIVNRLNMHNLVEPVNKDLEFQLHEPFLLYRNASLSIYSIWFYDKNDCHRIAKLMADVVEEETRRSQQAARDKQSPSQANGCSDHRPIDILEMLSRAKDEYERNQMGDSNISSPGLQPSTQLSNLGSTETLEEMPSGSQDKSAPSGHKHLTVEELFGTSLPKEQPAVVGLDSEEMERLPGDASQKEPNSFLPFPFEQLGGAPQSETLGVPSAAHHSVQPEITTPVLITPASITQSNEKHAPTYTIPLSPVLSPTLPAEAPTAQVPPSLPRNSTMMQAVKTTPRQRSPLLNQPVPELSHASLIANQSPFRAPLNVTNTAGTSLPSVDLLQKLRLTPQHDQIQTQPLGKGAMVASFSPAAGQLATPESFIEPPSKTAAARVAASASLSNMVLAPLQSMQQNQDPEVFVQPKVLSSAIPVAGAPLVTATTTAVSSVLLAPSVFQQTVTRSSDLERKASSPSPLTIGTPESQRKPSIILSKSQLQDTLIHLIKNDSSFLSTLHEVYLQVLTKNKDNHNL [S12A;H19A], the “effect of a mutation on the interaction” value is “decreasing interaction strength”.

As to MEALSRAGQEMSLAALKQHDPYITSIADLTGQVALYTFCPKANQWEKTDIEGTLFVYRRSASPYHGFTIVNRLNMHNLVEPVNKDLEFQLHEPFLLYRNASLSIYSIWFYDKNDCHRIAKLMADVVEEETRRSQQAARDKQSPSQANGCSDHRPIDILEMLSRAKDEYERNQMGDSNISSPGLQPSTQLSNLGSTETLEEMPSGSQDKSAPSGHKHLTVEELFGTSLPKEQPAVVGLDSEEMERLPGDASQKEPNSFLPFPFEQLGGAPQSETLGVPSAAHHSVQPEITTPVLITPASITQSNEKHAPTYTIPLSPVLSPTLPAEAPTAQVPPSLPRNSTMMQAVKTTPRQRSPLLNQPVPELSHASLIANQSPFRAPLNVTNTAGTSLPSVDLLQKLRLTPQHDQIQTQPLGKGAMVASFSPAAGQLATPESFIEPPSKTAAARVAASASLSNMVLAPLQSMQQNQDPEVFVQPKVLSSAIPVAGAPLVTATTTAVSSVLLAPSVFQQTVTRSSDLERKASSPSPLTIGTPESQRKPSIILSKSQLQDTLIHSIKNDSSRLSTSHEVYLQVLTKNKDNHNL [L554S;F561R;L565S], the “effect of a mutation on the interaction” value is “disrupting interaction strength”.

Variants of B1 are the subject of a further assay. To be noted: with dcp2_human DCP2, Q8IU60. This is another data set of the same source.
As to MEALSRAGQEMSLAALKQHDPYITSIADLTGQVALYTFCPKANQWEKTDIEGTLFVYRRSASPYHGFTIVNRLNMHNLVEPVNKDLEFQLHEPFLLYRNASLSIYSIWFYDKNDCHRIAKLMADVVEEETRRSQQAARDKQSPSQANGCSDHRPIDILEMLSRAKDEYERNQMGDSNISSPGLQPSTQLSNLGSTETLEEMPSGSQDKSAPSGHKHLTVEELFGTSLPKEQPAVVGLDSEEMERLPGDASQKEPNSFLPFPFEQLGGAPQSETLGVPSAAHHSVQPEITTPVLITPASITQSNEKHAPTYTIPLSPVLSPTLPAEAPTAQVPPSLPRNSTMMQAVKTTPRQRSPLLNQPVPELSHASLIANQSPFRAPLNVTNTAGTSLPSVDLLQKLRLTPQHDQIQTQPLGKGAMVASFSPAAGQLATPESFIEPPSKTAAARVAASASLSNMVLAPLQSMQQNQDPEVFVQPKVLSSAIPVAGAPLVTATTTAVSSVLLAPSVFQQTVTRSSDLERKASSPSPLTIGTPESQRKPSIILSKSQLQDTLIHSIKNDSSRLSTSHEVYLQVLTKNKDNHNL [L554S;F561R;L565S], the “effect of a mutation on the interaction” value is “disrupting interaction strength”.

MEALSRAGQEMSLAALKQHDPYITSIADLTGQVALYTFCPKANQWEKTDIEGTLFVYRRSASPYHGFTIVNRLGMHNLVEPVNKDLEFQLHEPFLLYRNASLSIYSIWFYDKNDCHRIAKLMADVVEEETRRSQQAARDKQSPSQANGCSDHRPIDILEMLSRAKDEYERNQMGDSNISSPGLQPSTQLSNLGSTETLEEMPSGSQDKSAPSGHKHLTVEELFGTSLPKEQPAVVGLDSEEMERLPGDASQKEPNSFLPFPFEQLGGAPQSETLGVPSAAHHSVQPEITTPVLITPASITQSNEKHAPTYTIPLSPVLSPTLPAEAPTAQVPPSLPRNSTMMQAVKTTPRQRSPLLNQPVPELSHASLIANQSPFRAPLNVTNTAGTSLPSVDLLQKLRLTPQHDQIQTQPLGKGAMVASFSPAAGQLATPESFIEPPSKTAAARVAASASLSNMVLAPLQSMQQNQDPEVFVQPKVLSSAIPVAGAPLVTATTTAVSSVLLAPSVFQQTVTRSSDLERKASSPSPLTIGTPESQRKPSIILSKSQLQDTLIHLIKNDSSFLSTLHEVYLQVLTKNKDNHNL [N74G]: the “effect of a mutation on the interaction” value is reported as “with no effect”.

The next assay covers variants of B1. To be noted: with dcp2_human DCP2, Q8IU60. The source holds these as a separate data set.
Take MEAESRAGQEMSLQALKQHDPYITSIADLTGQVALYTFCPKANQWEKTDIEGTLFVYRRSASPYHGFTIVNRLNMHNLVEPVNKDLEFQLHEPFLLYRNASLSIYSIWFYDKNDCHRIAKLMADVVEEETRRSQQAARDKQSPSQANGCSDHRPIDILEMLSRAKDEYERNQMGDSNISSPGLQPSTQLSNLGSTETLEEMPSGSQDKSAPSGHKHLTVEELFGTSLPKEQPAVVGLDSEEMERLPGDASQKEPNSFLPFPFEQLGGAPQSETLGVPSAAHHSVQPEITTPVLITPASITQSNEKHAPTYTIPLSPVLSPTLPAEAPTAQVPPSLPRNSTMMQAVKTTPRQRSPLLNQPVPELSHASLIANQSPFRAPLNVTNTAGTSLPSVDLLQKLRLTPQHDQIQTQPLGKGAMVASFSPAAGQLATPESFIEPPSKTAAARVAASASLSNMVLAPLQSMQQNQDPEVFVQPKVLSSAIPVAGAPLVTATTTAVSSVLLAPSVFQQTVTRSSDLERKASSPSPLTIGTPESQRKPSIILSKSQLQDTLIHLIKNDSSFLSTLHEVYLQVLTKNKDNHNL [L4E;A14Q]: the “effect of a mutation on the interaction” value is given as “with no effect”.
